{"source": "patent US20200199231A1", "about": "(Genmab, published 2020)", "binders": {"B1": {"name": "IgG1-7D8-FEAR (antibody, V domains shown)", "VH": "EVQLVESGGGLVQPDRSLRLSCAASGFTFHDYAMHWVRQAPGKGLEWVSTISWNSGTIGYADSVKGRFTISRDNAKNSLYLQMNSLRAEDTALYYCAKDIQYGNYYYGMDVWGQGTTVTVSS", "VL": "EIVLTQSPATLSLSPGERATLSCRASQSVSSYLAWYQQKPGQAPRLLIYDASNRATGIPARFSGSGSGTDFTLTISSLEPEDFAVYYCQQRSNWPITFGQGTRLEIK"}}, "key": {"human CD20 [1]": {"molecular_target": "T1, human CD20 (human, UniProt P11836 1-297)", "T1 construct": "whole, on cells; On Daudi and other human B cell lines, on human B cells in blood, or transiently expressed in HEK293F cells (construct pEE12.4CD20HS-GA); also called wild type CD20; WT CD20", "T1 sequence (looked up)": "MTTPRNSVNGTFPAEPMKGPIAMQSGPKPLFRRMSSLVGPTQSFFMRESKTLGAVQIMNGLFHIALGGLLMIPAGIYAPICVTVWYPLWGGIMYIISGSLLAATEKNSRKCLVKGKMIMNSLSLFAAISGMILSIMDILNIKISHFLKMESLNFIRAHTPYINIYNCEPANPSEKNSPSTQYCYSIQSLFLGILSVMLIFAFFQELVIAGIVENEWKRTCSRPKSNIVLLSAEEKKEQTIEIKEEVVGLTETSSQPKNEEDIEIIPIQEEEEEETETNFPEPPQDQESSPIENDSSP", "assay": "flow cytometry on Daudi cells (CD20-positive, CD3-negative); PE-conjugated goat anti-human IgG F(ab')2; median FI (PE)", "experimental": "(§1) In addition to the non-activating mutations, L234F, L235E, D265A, on both arms, the bispecific antibody contained an F405L mutation on one arm and a K409R mutation on the other arm.\n(§2) Cells (1×10⁵ cells/well) were incubated in polystyrene 96-well round-bottom plates (Greiner bio-one, cat. no. 650101) with serial dilutions of antibodies (range 0.041 to 30 μg/mL in 3-fold dilution steps [A-E] and 0.00061 to 10 μg/mL in 4-fold dilution steps [F-I]) in 100 μL PBS/0.1% BSA/0.02% azide (from here designated as staining buffer) at 4° C. for 30 min.\n(§3) After washing twice in staining buffer, cells were incubated in 50 μL secondary antibody at 4° C. for 30 min. As a secondary antibody, R-Phycoerythrin (PE)-conjugated goat-anti-human IgG F(ab′)₂ (cat. no. 109-116-098, Jackson ImmunoResearch Laboratories, Inc., West Grove, Pa.) diluted 1:200 in staining buffer, was used for all experiments. Next, cells were washed twice in staining buffer, re-suspended in 30 μL staining buffer and analyzed on an iQue screener (Intellicyt Corporation, USA) (for FIG. 1A-E) or re-suspended in 100 μL staining buffer and analyzed on a FACSCANTOII (BD Biosciences) (FIG. 1F-I). Binding curves were analyzed using non-linear regression (sigmoidal dose-response with variable slope) using GraphPad Prism V75.04 software (GraphPad Software, San Diego, Calif., USA)."}, "human CD20 [2]": {"molecular_target": "T1, human CD20", "assay": "flow cytometry on Daudi cells (CD20-positive, CD3-negative); PE-conjugated goat anti-human IgG F(ab')2; median FI (PE)", "experimental": "as §1, §2, §3", "remark": "listed apart in the source"}}, "note": "Where two headings read alike, the source gives them in different places.", "data": [{"binder": "B1", "values": [{"measurement": "EC50 (read off the curve)", "setting": "human CD20 [1]", "value": "~0.3", "unit": "µg/mL"}, {"measurement": "EC50 (read off the curve)", "setting": "human CD20 [2]", "value": "~0.3", "unit": "µg/mL"}]}]}
